Article PMC3134637
Read-outs that look alike come from different tables or passages of the source.

Experiments:
Assay in all cases: HiTS-FLIP
6xHis-mOrange-Gcn4p [1] = target: T1, 6xHis-mOrange-Gcn4p (Saccharomyces cerevisiae, UniProt P03069 1-281)
6xHis-mOrange-Gcn4p [2] = target: T1, 6xHis-mOrange-Gcn4p; remark: listed apart in the source
6xHis-mOrange-Gcn4p [3] = target: T1, 6xHis-mOrange-Gcn4p; remark: listed apart in the source
6xHis-mOrange-Gcn4p [4] = target: T1, 6xHis-mOrange-Gcn4p; remark: listed apart in the source
6xHis-mOrange-Gcn4p [5] = target: T1, 6xHis-mOrange-Gcn4p; remark: listed apart in the source
6xHis-mOrange-Gcn4p [6] = target: T1, 6xHis-mOrange-Gcn4p; remark: listed apart in the source

T1 sequence (P03069 whole entry): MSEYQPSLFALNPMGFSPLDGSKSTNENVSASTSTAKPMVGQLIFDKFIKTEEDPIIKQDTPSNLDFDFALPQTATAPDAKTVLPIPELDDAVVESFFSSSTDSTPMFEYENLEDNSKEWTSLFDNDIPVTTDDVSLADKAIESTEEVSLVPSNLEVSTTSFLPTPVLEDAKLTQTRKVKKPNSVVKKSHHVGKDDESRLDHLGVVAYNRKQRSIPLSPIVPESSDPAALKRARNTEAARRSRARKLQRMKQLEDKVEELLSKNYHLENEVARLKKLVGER

B1: adjacent half-sites ATGACGTCAT (dsDNA)
DNA 1: ATGACGTCAT
DNA 2: ATGACGTCAT
6xHis-mOrange-Gcn4p [1]
  binding result: binds

B2: 11mer flanks G,A (dsDNA)
DNA 1: GATGACTCATA
DNA 2: TATGAGTCATC
6xHis-mOrange-Gcn4p [2]
  binding result: binds

B3: 10mer TATGACTCAT (dsDNA)
DNA 1: TATGACTCAT
DNA 2: ATGAGTCATA
6xHis-mOrange-Gcn4p [3]
  binding result: binds

B4: 10mer ATGACTCATA (dsDNA)
DNA 1: ATGACTCATA
DNA 2: TATGAGTCAT
6xHis-mOrange-Gcn4p [3]
  binding result: binds

B5: 11mer flanks C,A (dsDNA)
DNA 1: CATGACTCATA
DNA 2: TATGAGTCATG
6xHis-mOrange-Gcn4p [2]
  binding result: binds

B6: 9mer ATGACTCAT (dsDNA)
DNA 1: ATGACTCAT
DNA 2: ATGAGTCAT
6xHis-mOrange-Gcn4p [4]
  binding result: binds

B7: 11mer flanks T,C (dsDNA)
DNA 1: TATGACTCATC
DNA 2: GATGAGTCATA
6xHis-mOrange-Gcn4p [2]
  binding result: binds

B8: consensus 7mer TGACTCA (dsDNA)
DNA 1: TGACTCA
DNA 2: TGAGTCA
6xHis-mOrange-Gcn4p [5]
  binding result: binds

B9: 11mer consensus TATGACTCATA (T,A flanks) (dsDNA)
DNA 1: TATGACTCATA
DNA 2: TATGAGTCATA
6xHis-mOrange-Gcn4p [6]
  binding result: binds
